We go through 1 molecule from article PMC10360443 (Science immunology, 2023).

The target in the assay is HHLA2 (recombinant, SPR analyte) (human, UniProt Q9UM44 23-414). Kind of assay: SPR.

B1: KIR3DL3 (recombinant, coupled to the streptavidin sensor chip) (receptor)
chain: QDKPFLSAWPGTVVSEGQHVTLQCRSRLGFNEFSLSKEDGMPVPELYNRIFRNSFLMGPVTPAHAGTYRCCSSHPHSPTGWSAPSNPVVIMVTGVHRKPSLLAHPGPLVKSGETVILQCWSDVRFERFLLHREGITEDPLRLVGQLHDAGSQVNYSMGPMTPALAGTYRCFGSVTHLPYELSAPSDPLDIVVVGLYGKPSLSAQPGPTVQAGENVTLSCSSRSLFDIYHLSREAEAGELRLTAVLRVNGTFQANFPLGPVTHGGNYRCFGSFRALPHAWSDPSDPLPVSVTGNSRHL
With B1, the Kd amounted to 48.9 µM.
